Data from patent EP4592317A1 (ABlink Biotech Co., Ltd., dated 2025).
Where “and” joins values, the source holds several entries; their conditions need not be identical. Equal entries are not always repeated.

T1: Mouse 4-1BB extracellular region recombinant protein (his-tag) (mouse, UniProt P20334 24-187)
T1 construct: extracellular domain; also called Mouse4-1BB, his-tag; not shown: his-tag
T1 sequence (looked up): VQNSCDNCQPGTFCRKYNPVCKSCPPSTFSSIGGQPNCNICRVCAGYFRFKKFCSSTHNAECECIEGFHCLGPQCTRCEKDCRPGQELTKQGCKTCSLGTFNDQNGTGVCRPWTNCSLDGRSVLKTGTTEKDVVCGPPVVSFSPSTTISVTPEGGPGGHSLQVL


Assays:
[1] = target: T1, Mouse 4-1BB extracellular region …; assay: ELISA, coated mouse 4-1BB his-tag 200 ng/well
[2] = target: T2, Human 4-1BB extracellular domain recombinant protein (his-tag) (human, UniProt Q07011 24-186); assay: ELISA, coated human 4-1BB-his 200 ng/well
T2 construct: extracellular domain; also called Human4-1BB, his-tag; human 4-1BB extracellular region recombinant protein; not shown: his-tag

[3] = target: T3, Monkey 4-1BB extracellular region recombinant protein (his-tag) (monkey); assay: ELISA, coated monkey 4-1BB-his 200 ng/well
T3 construct: extracellular domain; also called Monkey4-1BB, his-tag

[4] = target: T2, Human 4-1BB extracellular domain …; assay: ELISA, coated human 4-1BB-his 200 ng/well; antibody 0.12 µg/ml
[5] = target: T2, Human 4-1BB extracellular domain …; assay: ELISA, coated human 4-1BB-his 200 ng/well; antibody 0.37 µg/ml
[6] = target: T1, Mouse 4-1BB extracellular region …; assay: ELISA, coated mouse 4-1BB-his 200 ng/well; antibody 0.12 µg/ml
[7] = target: T1, Mouse 4-1BB extracellular region …; assay: ELISA, coated mouse 4-1BB-his 200 ng/well; antibody 0.37 µg/ml
[8] = target: T1, Mouse 4-1BB extracellular region …; assay: ELISA, coated mouse 4-1BB-his 200 ng/well; antibody 1.11 µg/ml
[9] = target: T1, Mouse 4-1BB extracellular region …; assay: ELISA, coated mouse 4-1BB-his 200 ng/well; antibody 10.0 µg/ml
[10] = target: T1, Mouse 4-1BB extracellular region …; assay: ELISA, coated mouse 4-1BB-his 200 ng/well; antibody 3.33 µg/ml
[11] = target: T2, Human 4-1BB extracellular domain …; assay: ELISA, coated human 4-1BB-his 200 ng/well; antibody 0.014 µg/ml
[12] = target: T2, Human 4-1BB extracellular domain …; assay: ELISA, coated human 4-1BB-his 200 ng/well; antibody 0.041 µg/ml
[13] = target: T3, Monkey 4-1BB extracellular region …; assay: ELISA, coated monkey 4-1BB-his 200 ng/well; antibody 0.12 µg/ml
[14] = target: T3, Monkey 4-1BB extracellular region …; assay: ELISA, coated monkey 4-1BB-his 200 ng/well; antibody 0.37 µg/ml
[15] = target: T1, Mouse 4-1BB extracellular region …; assay: ELISA, coated mouse 4-1BB-his 200 ng/well; antibody 0.014 µg/ml
[16] = target: T1, Mouse 4-1BB extracellular region …; assay: ELISA, coated mouse 4-1BB-his 200 ng/well; antibody 0.041 µg/ml
[17] = target: T3, Monkey 4-1BB extracellular region …; assay: ELISA, coated monkey 4-1BB-his 200 ng/well; antibody 0.014 µg/ml
[18] = target: T3, Monkey 4-1BB extracellular region …; assay: ELISA, coated monkey 4-1BB-his 200 ng/well; antibody 0.041 µg/ml
[19] = target: T2, Human 4-1BB extracellular domain …; assay: ELISA, coated human 4-1BB-his 200 ng/well; antibody 0 µg/ml (background well)
[20] = target: T1, Mouse 4-1BB extracellular region …; assay: ELISA, coated mouse 4-1BB-his 200 ng/well; antibody 0 µg/ml (background well)
[21] = target: T3, Monkey 4-1BB extracellular region …; assay: ELISA, coated monkey 4-1BB-his 200 ng/well; antibody 0 µg/ml (background well)
[22] = target: T2, Human 4-1BB extracellular domain …; assay: SPR (Biacore 8K), VHH-hFc captured on Protein A chip, human 4-1BB-his as analyte, 25°C, 1:1 fit
[23] = target: T2, Human 4-1BB extracellular domain …; assay: ELISA, coated human 4-1BB-his 200 ng/well; antibody 1.11 µg/ml
[24] = target: T2, Human 4-1BB extracellular domain …; assay: ELISA, coated human 4-1BB-his 200 ng/well; antibody 10.0 µg/ml
[25] = target: T2, Human 4-1BB extracellular domain …; assay: ELISA, coated human 4-1BB-his 200 ng/well; antibody 3.33 µg/ml
[26] = target: T3, Monkey 4-1BB extracellular region …; assay: ELISA, coated monkey 4-1BB-his 200 ng/well; antibody 1.11 µg/ml
[27] = target: T3, Monkey 4-1BB extracellular region …; assay: ELISA, coated monkey 4-1BB-his 200 ng/well; antibody 10.0 µg/ml
[28] = target: T3, Monkey 4-1BB extracellular region …; assay: ELISA, coated monkey 4-1BB-his 200 ng/well; antibody 3.33 µg/ml

Binder	binding result [1]	EC50 [2]	EC50 [3]	absorbance at 450 nm [4]	absorbance at 450 nm [5]	absorbance at 450 nm [6]	absorbance at 450 nm [7]	absorbance at 450 nm [8]	absorbance at 450 nm [9]	absorbance at 450 nm [10]	absorbance at 450 nm [11]	absorbance at 450 nm [12]	absorbance at 450 nm [13]	absorbance at 450 nm [14]	absorbance at 450 nm [15]	absorbance at 450 nm [16]	absorbance at 450 nm [17]	absorbance at 450 nm [18]	absorbance at 450 nm [19]	absorbance at 450 nm [20]	other results
137-1 VHH-hFc recombinant antibody (Fc fusion, also called CD137-1; not shown: human IgG1 Fc tag of the eukaryotic expression vector pFclG) QVQLVESGGGLVQPGGSLRLSCVASGFVFSTVTMGWGRQVPGKEFEWVSGVSSEGITDYADSVKGRFTISRDNAKNTVYLEMNSLKSEDTAEYYCLIGGRWSFGTWGQGTQVTVSS	no binding (tested: 0.014-10 µg/mL)	0.138 µg/mL and 1.73 nM	0.113 µg/mL and 1.41 nM	1.5	3.97	0.184	0.269	0.207	0.31	0.231	0.612	0.754	1.85	3.97	0.199	0.202	0.621	0.971	0.093	0.24	absorbance at 450 nm [21]: 0.077; Kd [22]: 3.91 nM; koff [22]: 0.00916 s⁻¹; kon [22]: 2.34e+06 M⁻¹ s⁻¹
137-18 VHH-hFc recombinant antibody (Fc fusion, VHH fragment inserted into vector pFclG with human IgG1 Fc tag, expressed in HEK293F; also called CD137-18; not shown: human IgG1 Fc tag of the eukaryotic expression vector pFclG) QVQLVESGGGLVHPGGSLRLSCAASGFIFSLYTMSWVRQAPGKGLEWVSDINSGGDSTDYADSVKGRFTISRDNAKSTLYLQMNSLKPEDTAVYYCAKDYPLGQREDYWGQGTQVTVSS	no binding (tested: 0.014-10 µg/mL)	4.06 µg/mL and 50.8 nM	4.36 µg/mL and 54.5 nM	0.562	0.732	0.192	0.199	0.214	0.288	0.219	0.399	0.451	0.433	0.707	0.188	0.182	0.325	0.392	0.119	0.203	absorbance at 450 nm [23]: 1.31; absorbance at 450 nm [24]: 2.93; absorbance at 450 nm [25]: 1.73; absorbance at 450 nm [26]: 1.19; absorbance at 450 nm [27]: 3.3; absorbance at 450 nm [28]: 2.05; absorbance at 450 nm [21]: 0.051; Kd [22]: 3.36 nM; koff [22]: 0.000792 s⁻¹; kon [22]: 236000 M⁻¹ s⁻¹
